US20040142470, “Recombinase-based system for construction of adenovirus vectors” (published 2004)

Target: Cre recombinase (UniProt P06956 P06956:1-343)
Test: cell_activity; plaque formation in cotransfected 293Cre4 cells relative to homologous recombination; pCA36loxΔ gave plaques only in 293Cre cells (Table 2)
Conditions: tags: stably expressed in 293Cre4 cells or from shuttle plasmid cassette (pLC2); chain copies: 4; BamHI/BglII overhangs
Text: The efficiency of Cre/lox mediated recombination was compared with that of homologous recombination, by measuring the numbers of virus plaques obtained from cotransfections of 293 cells versus the numbers obtained following cotransfections of 293Cre4 cells (see, for example, U.S. patent application Ser. No. 08/473,168, filed Jun. 7, 1995; see also WO96/40955, hereby incorporated by reference).

Chain of Cre recombinase (P06956 whole entry, one chain of several): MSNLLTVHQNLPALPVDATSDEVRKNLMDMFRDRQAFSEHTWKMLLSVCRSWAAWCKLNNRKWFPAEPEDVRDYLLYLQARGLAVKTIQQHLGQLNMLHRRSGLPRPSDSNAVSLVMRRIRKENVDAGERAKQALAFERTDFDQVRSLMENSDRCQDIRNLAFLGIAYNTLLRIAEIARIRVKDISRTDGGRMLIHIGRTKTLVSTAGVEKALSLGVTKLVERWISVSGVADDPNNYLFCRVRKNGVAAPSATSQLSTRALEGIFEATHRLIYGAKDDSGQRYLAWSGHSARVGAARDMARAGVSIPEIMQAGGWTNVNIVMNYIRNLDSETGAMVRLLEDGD

B1: loxP linker AB3233/3234 (in pBHG10lox and pCA36lox / pCA36loxΔ) (dsDNA)
DNA 1: GATCCAATAACTTCGTATAGCATACATTATACGAAGTTATAAGTACTGAATTCG
DNA 2: GATCCGAATTCAGTACTTATAACTTCGTATAATGTATGCTATACGAAGTTATTG
- relative plaque formation efficiency: 35 fold
